Measured values taken from paper PMC9598480.
Several values for one entry are separate records, joined by “and”; a condition that tells them apart may be missing. Identical values can stand only once.

What was measured:
[1] = biological target: recombinant Fasciola hepatica cytosolic Cu/Zn superoxide dismutase (rFhSOD1) (Fasciola hepatica); test: SEC; Superdex 75 10/300 GL column, 400 uL/min, eluted into 1x PBS; standards conalbumin (76 kDa), carbonic anhydrase (29 kDa), aprotinin (6.5 kDa)
[2] = biological target: recombinant Fasciola hepatica extracellular Cu/Zn superoxide dismutase (rFhSOD3), signal peptide removed (Fasciola hepatica); test: as above

Substance | stoichiometry N [1] | stoichiometry N [2]
recombinant Fasciola hepatica cytosolic Cu/Zn superoxide dismutase (rFhSOD1) (enzyme) | 2 | –
recombinant Fasciola hepatica extracellular Cu/Zn superoxide dismutase (rFhSOD3), signal peptide removed (enzyme) | – | 2 and 4
